Measured values as given in patent US12187772 (Regeneron, dated 2025).
Where two headings read alike, the source gives them in different places.

T1: IL10 receptor (IL10 receptor subunit alpha IL10Ra and beta subunit IL10Rb) on Ramos/STAT3-Luc and … (UniProt Q13651 22-578; Q08334 20-325, limits assumed)
T1 sequence (looked up) 1: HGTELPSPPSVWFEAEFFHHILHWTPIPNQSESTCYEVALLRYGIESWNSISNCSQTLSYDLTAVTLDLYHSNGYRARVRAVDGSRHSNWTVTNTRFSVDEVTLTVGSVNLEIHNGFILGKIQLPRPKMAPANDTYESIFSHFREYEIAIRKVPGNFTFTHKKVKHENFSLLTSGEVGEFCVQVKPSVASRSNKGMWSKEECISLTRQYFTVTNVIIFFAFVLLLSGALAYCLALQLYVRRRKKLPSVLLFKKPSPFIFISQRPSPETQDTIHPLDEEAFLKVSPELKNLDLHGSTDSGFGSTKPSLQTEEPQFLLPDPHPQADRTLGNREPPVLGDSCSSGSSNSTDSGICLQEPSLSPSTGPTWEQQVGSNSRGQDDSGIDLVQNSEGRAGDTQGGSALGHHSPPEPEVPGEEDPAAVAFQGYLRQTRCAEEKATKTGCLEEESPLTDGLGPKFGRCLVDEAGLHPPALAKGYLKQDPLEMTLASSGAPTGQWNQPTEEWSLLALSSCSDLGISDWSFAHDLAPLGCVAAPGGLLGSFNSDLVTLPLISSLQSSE
T1 sequence (looked up) 2: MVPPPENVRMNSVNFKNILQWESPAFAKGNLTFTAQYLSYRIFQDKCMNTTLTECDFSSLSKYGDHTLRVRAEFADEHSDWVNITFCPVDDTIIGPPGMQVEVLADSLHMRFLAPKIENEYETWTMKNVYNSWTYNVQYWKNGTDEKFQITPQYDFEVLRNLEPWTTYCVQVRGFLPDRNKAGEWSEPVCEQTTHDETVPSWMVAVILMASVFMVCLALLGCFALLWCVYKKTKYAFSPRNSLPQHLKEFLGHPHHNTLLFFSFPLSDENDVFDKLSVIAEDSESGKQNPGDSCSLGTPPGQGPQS


Assays:
Experiment in all cases: cell-based or functional assay
[1] = target: T1, IL10 receptor (IL10 receptor subunit …)
[2] = target: T1, IL10 receptor (IL10 receptor subunit …); remark: listed apart in the source
[3] = target: T1, IL10 receptor (IL10 receptor subunit …); remark: listed apart in the source

Binder | Fold Induction of luciferase activity, Ramos/Stat3-Luc reporter cells [1] [fold] | Fold Induction of luciferase activity, TF-1/Stat3-Luc reporter cells [1] [fold] | EC50 [M] of luciferase activity, Ramos/STAT3-Luc reporter cells [2] [M] | EC50 [M] of luciferase activity, TF-1/STAT3-Luc reporter cells [2] [M] | Fold Induction of luciferase activity, Ramos/Stat3-Luc reporter cells [2] [fold] | Fold Induction of luciferase activity, TF-1/Stat3-Luc reporter cells [2] [fold] | other results
hIgG1 (anti-FelD1 human IgG1 Fc isotype control) (antibody, V domains shown) VH: QVQLQESGPGLVKPSETLSLTCTVSGGSISSYYWSWIRQPPGKGLEWIGYIYYSGRTNYNPSLKSRVTISVDTSKNQFSLKLSSVTAADTAIYYCARHRVTRTADSFDYWGQGTLVTVSS VL: DIQMTQSPSSLSASVGDRVTITCQASQDINNYLNWYQQKTGKAPKFLIYDASNLETGVSSRFSGSGSGTDFTFTISSLQPEDVGTYYCHQYGDLPYTFGQGTKLEIKR | 1.1 | 1 | – | – | – | – | –
Recombinant human IL10 (obtained from Peprotech, Princeton NJ, Product #200-10) (ligand) SPGQGTQSENSCTHFPGNLPNMLRDLRDAFSRVKTFFQMKDQLDNLLLKESLLEDFKGYLGCQALSEMIQFYLEEVMPQAENQDPDIKAHVNSLGENLKTLRLRLRRCHRFLPCENKSKAVEQVKNAFNKLQEKGIYKAMSEFDIFINYIEAYMTMKIRN | 5.16 | 4.02 | 5.07e-11 | 7.05e-11 | 4.5 | 5.9 | EC50 of luciferase activity, Ramos/Stat3-Luc reporter cells [1]: 0.0482 nM; EC50 of luciferase activity, TF-1/Stat3-Luc reporter cells [1]: 0.063 nM
IL10M8 (hIL10-Fc; Fc is IgG4s) (Fc fusion) SPGQGTQSENSCTHFPGNLPNMLRDLRDAFSRVKTFFQMKDQLDNLLLKESLLEDFKGYLGCQALSEMIQFYLEEVMPQAENQDPDIKAHVNSLGENLKTLRLRLRRCHRFLPCENKSKAVEQVKNAFNKLQEKGIYKAMSEFDIFINYIEAYMTMKIRNESKYGPPCPPCPAPPVAGPSVFLFPPKPKDTLMISRTPEVTCVVVDVSQEDPEVQFNWYVDGVEVHNAKTKPREEQFNSTYRVVSVLTVLHQDWLNGKEYKCKVSNKGLPSSIEKTISKAKGQPREPQVYTLPPSQEEMTKNQVSLTCLVKGFYPSDIAVEWESNGQPENNYKTTPPVLDSDGSFFLYSRLTVDKSRWQEGNVFSCSVMHEALHNHYTQKSLSLSLGK | – | – | – | – | – | – | EC50 of luciferase activity, Ramos/Stat3-Luc reporter cells [3]: 0.268 nM; EC50 of luciferase activity, TF-1/Stat3-Luc reporter cells [3]: 0.484 nM; Fold Induction of luciferase activity, Ramos/Stat3-Luc reporter cells [3]: 3.2 fold; Fold Induction of luciferase activity, TF-1/Stat3-Luc reporter cells [3]: 2.34 fold
IL10M7 (hIL10-1XG4S-Fc; Fc is IgG4s) (Fc fusion) SPGQGTQSENSCTHFPGNLPNMLRDLRDAFSRVKTFFQMKDQLDNLLLKESLLEDFKGYLGCQALSEMIQFYLEEVMPQAENQDPDIKAHVNSLGENLKTLRLRLRRCHRFLPCENKSKAVEQVKNAFNKLQEKGIYKAMSEFDIFINYIEAYMTMKIRNGGGGSESKYGPPCPPCPAPPVAGPSVFLFPPKPKDTLMISRTPEVTCVVVDVSQEDPEVQFNWYVDGVEVHNAKTKPREEQFNSTYRVVSVLTVLHQDWLNGKEYKCKVSNKGLPSSIEKTISKAKGQPREPQVYTLPPSQEEMTKNQVSLTCLVKGFYPSDIAVEWESNGQPENNYKTTPPVLDSDGSFFLYSRLTVDKSRWQEGNVFSCSVMHEALHNHYTQKSLSLSLGK | – | – | – | – | – | – | EC50 of luciferase activity, Ramos/Stat3-Luc reporter cells [3]: 0.172 nM; EC50 of luciferase activity, TF-1/Stat3-Luc reporter cells [3]: 0.319 nM; Fold Induction of luciferase activity, Ramos/Stat3-Luc reporter cells [3]: 2.88 fold; Fold Induction of luciferase activity, TF-1/Stat3-Luc reporter cells [3]: 2.36 fold
IL10M1 (Fc-3XG4S-hIL10; Fc is IgG4s) (Fc fusion) ESKYGPPCPPCPAPPVAGPSVFLFPPKPKDTLMISRTPEVTCVVVDVSQEDPEVQFNWYVDGVEVHNAKTKPREEQFNSTYRVVSVLTVLHQDWLNGKEYKCKVSNKGLPSSIEKTISKAKGQPREPQVYTLPPSQEEMTKNQVSLTCLVKGFYPSDIAVEWESNGQPENNYKTTPPVLDSDGSFFLYSRLTVDKSRWQEGNVFSCSVMHEALHNHYTQKSLSLSLGKGGGGSGGGGSGGGGSSPGQGTQSENSCTHFPGNLPNMLRDLRDAFSRVKTFFQMKDQLDNLLLKESLLEDFKGYLGCQALSEMIQFYLEEVMPQAENQDPDIKAHVNSLGENLKTLRLRLRRCHRFLPCENKSKAVEQVKNAFNKLQEKGIYKAMSEFDIFINYIEAYMTMKIRN | – | – | 1.19e-10 | 1.18e-10 | 3.7 | 4.8 | EC50 of luciferase activity, Ramos/Stat3-Luc reporter cells (IL10M1 L1) [1]: 0.117 nM; EC50 of luciferase activity, Ramos/Stat3-Luc reporter cells (IL10M1 L2) [1]: 0.148 nM; EC50 of luciferase activity, TF-1/Stat3-Luc reporter cells (IL10M1 L1) [1]: 0.139 nM; EC50 of luciferase activity, TF-1/Stat3-Luc reporter cells (IL10M1 L2) [1]: 0.134 nM; Fold Induction of luciferase activity, Ramos/Stat3-Luc reporter cells (IL10M1 L1) [1]: 4.11 fold; Fold Induction of luciferase activity, Ramos/Stat3-Luc reporter cells (IL10M1 L2) [1]: 3.66 fold; Fold Induction of luciferase activity, TF-1/Stat3-Luc reporter cells (IL10M1 L1) [1]: 4.12 fold; Fold Induction of luciferase activity, TF-1/Stat3-Luc reporter cells (IL10M1 L2) [1]: 3.4 fold
hIgG4s (human IgG4 Fc isotype control; Fc is IgG4s) (antibody, V domains shown) VH: EVQLVESGGGLVQPGGSLRLSCAASGFTLSTYAMTWVRQAPGKGLEWVSAINYRAANTWYADSVKGRFTISRDNSKNTLYLQMNSLRDEDTAVYYCAQDRVIIKDYYVMDVWGQGTTVTVSS VL: not shown | 1.01 | 0.99 | – | – | 1 | 1.4 | –
IL10M2 (hIL10-3XG4S-Fc; Fc is IgG4s) (Fc fusion) SPGQGTQSENSCTHFPGNLPNMLRDLRDAFSRVKTFFQMKDQLDNLLLKESLLEDFKGYLGCQALSEMIQFYLEEVMPQAENQDPDIKAHVNSLGENLKTLRLRLRRCHRFLPCENKSKAVEQVKNAFNKLQEKGIYKAMSEFDIFINYIEAYMTMKIRNGGGGSGGGGSGGGGSESKYGPPCPPCPAPPVAGPSVFLFPPKPKDTLMISRTPEVTCVVVDVSQEDPEVQFNWYVDGVEVHNAKTKPREEQFNSTYRVVSVLTVLHQDWLNGKEYKCKVSNKGLPSSIEKTISKAKGQPREPQVYTLPPSQEEMTKNQVSLTCLVKGFYPSDIAVEWESNGQPENNYKTTPPVLDSDGSFFLYSRLTVDKSRWQEGNVFSCSVMHEALHNHYTQKSLSLSLGK | – | – | 2.13e-10 | 5.15e-10 | 3.6 | 4.1 | EC50 of luciferase activity, Ramos/Stat3-Luc reporter cells (IL10M2 L1) [1]: 0.254 nM; EC50 of luciferase activity, Ramos/Stat3-Luc reporter cells (IL10M2 L2) [1]: 0.192 nM; EC50 of luciferase activity, TF-1/Stat3-Luc reporter cells (IL10M2 L1) [1]: 0.507 nM; EC50 of luciferase activity, TF-1/Stat3-Luc reporter cells (IL10M2 L2) [1]: 0.45 nM; Fold Induction of luciferase activity, Ramos/Stat3-Luc reporter cells (IL10M2 L1) [1]: 3.42 fold; Fold Induction of luciferase activity, Ramos/Stat3-Luc reporter cells (IL10M2 L2) [1]: 3.06 fold; Fold Induction of luciferase activity, TF-1/Stat3-Luc reporter cells (IL10M2 L1) [1]: 2.85 fold; Fold Induction of luciferase activity, TF-1/Stat3-Luc reporter cells (IL10M2 L2) [1]: 2.68 fold
mIgG1 (murine IgG1 Fc isotype control; control antibody with murine IgG1 sequence) (antibody, V domains shown) VH: QVQLQESGPGLVAPSQSLSITCTVSGFSLTTFGVHWVRQSPGKGLEWLGVIWADETTNYNSALMSRLSISKDNSKSQVFLKMNGLRTDDTAIYSCARSKVSYYFDYWGRGTTLTVSS VL: NIMMTQSPSSLPVSPGEKVTMNCKSSRSVLYSLNQKNYLAWYQQKPGQSPKLLIYWASTRESGVPDRFTGSGSGTDFSLTISSVQAEDLAVYYCHQYLSSWTFGGGTKLEIKR | – | – | – | – | 1.1 | 1.1 | –
IL10M3 (hIL10-1XG4S-Fc; Fc is murine IgG1) (Fc fusion) SPGQGTQSENSCTHFPGNLPNMLRDLRDAFSRVKTFFQMKDQLDNLLLKESLLEDFKGYLGCQALSEMIQFYLEEVMPQAENQDPDIKAHVNSLGENLKTLRLRLRRCHRFLPCENKSKAVEQVKNAFNKLQEKGIYKAMSEFDIFINYIEAYMTMKIRNGGGGSVPRDCGCKPCICTVPEVSSVFIFPPKPKDVLTITLTPKVTCVVVDISKDDPEVQFSWFVDDVEVHTAQTQPREEQFNSTFRSVSELPIMHQDWLNGKEFKCRVNSAAFPAPIEKTISKTKGRPKAPQVYTIPPPKEQMAKDKVSLTCMITDFFPEDITVEWQWNGQPAENYKNTQPIMDTDGSYFVYSKLNVQKSNWEAGNTFTCSVLHEGLHNHHTEKSLSHSPGK | – | – | 2.19e-10 | 4.51e-10 | 3.2 | 3.4 | –
